Target: PKCβII of mouse brain (UniProt P68404)
Sequence (P68404 other isoform, or with tags, fused parts or gaps): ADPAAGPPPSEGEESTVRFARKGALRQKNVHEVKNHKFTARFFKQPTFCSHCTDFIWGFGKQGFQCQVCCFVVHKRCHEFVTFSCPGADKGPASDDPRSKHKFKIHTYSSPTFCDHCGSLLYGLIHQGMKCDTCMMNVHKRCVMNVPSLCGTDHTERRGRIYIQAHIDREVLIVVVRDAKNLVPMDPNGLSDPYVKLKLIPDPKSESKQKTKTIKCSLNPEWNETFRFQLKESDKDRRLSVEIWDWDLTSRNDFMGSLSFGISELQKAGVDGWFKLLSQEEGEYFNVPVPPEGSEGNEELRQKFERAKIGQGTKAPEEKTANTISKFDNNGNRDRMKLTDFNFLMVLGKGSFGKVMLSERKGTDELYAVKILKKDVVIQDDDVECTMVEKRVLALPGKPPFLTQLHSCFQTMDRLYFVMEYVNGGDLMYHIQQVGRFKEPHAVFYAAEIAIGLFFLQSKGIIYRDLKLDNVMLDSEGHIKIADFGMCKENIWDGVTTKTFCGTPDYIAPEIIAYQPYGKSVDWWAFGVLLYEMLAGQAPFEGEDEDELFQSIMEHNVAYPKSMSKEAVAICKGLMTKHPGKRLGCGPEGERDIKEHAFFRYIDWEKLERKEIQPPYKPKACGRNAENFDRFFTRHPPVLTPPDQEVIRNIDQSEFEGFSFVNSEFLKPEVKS

Substance: human "readthrough" acetylcholinesterase variant AChE-R, recombinant full protein
- PKC activity in brain homogenates (PKC assay kit, Upstate Biotechnology): Note the elevation of PKC activity in the different brain regions in the AChE-R transgenics as compered to FVB/N controls

Reference: patent publication US7067486
